These results are taken from the supplement of paper PMC10567573.

To fix the notation:
B1: INTS3 (parent)
chain: FHPIKETVVEEPVDITPYLDQLDE
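Further: lentivirally expressed fusions sorted by FACS into six bins by GFP to DsRed ratio, PSI derived from sequencing read proportions per bin multiplied by bin number.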

In this data set the parent is B1. Nature of the data set: protein stability index of a GFP-peptide fusion (GPS, HEK-293T) (PSI 1-6); higher = more stable. The settings on record: c terminus: a fixed tail appended.
In the case of FHPIKEYVVEEPVDITPYLDQLDE [T7Y], the protein stability index stood at 2.88.

For the variant FHPIKESVVEEPVDITPYLDQLDE [T7S], the protein stability index was determined as 3.57.

Take FHPIKEHVVEEPVDITPYLDQLDE [T7H]: the protein stability index came to 3.35.

Consider FHPIKELVVEEPVDITPYLDQLDE [T7L], for which the protein stability index worked out at 2.7.

As to FHPIKEAVVEEPVDITPYLDQLDE [T7A], the protein stability index came out at 3.73.

For the variant FHPIKEWVVEEPVDITPYLDQLDE [T7W], the protein stability index amounted to 2.89.

FHPIKEDVVEEPVDITPYLDQLDE [T7D]: the protein stability index worked out at 3.85.

For the variant FHPIKEIVVEEPVDITPYLDQLDE [T7I], the protein stability index was 3.06.

As for FHPIKEFVVEEPVDITPYLDQLDE [T7F], the protein stability index worked out at 2.32.

Consider FHPIKEMVVEEPVDITPYLDQLDE [T7M], for which the protein stability index is 3.55.

Take FHPIKERVVEEPVDITPYLDQLDE [T7R]: the protein stability index was determined as 3.04.

Turning to FHPIKEVVVEEPVDITPYLDQLDE [T7V], the protein stability index is 3.12.

For the variant FHPIKENVVEEPVDITPYLDQLDE [T7N], the protein stability index came to 3.55.

FHPIKEGVVEEPVDITPYLDQLDE [T7G]: the protein stability index is 4.18.

In the case of FHPIKEPVVEEPVDITPYLDQLDE [T7P], the protein stability index came to 3.31.

With FHPIKEQVVEEPVDITPYLDQLDE [T7Q], the protein stability index was 3.26.

Regarding FHPIKECVVEEPVDITPYLDQLDE [T7C], the protein stability index is 2.66.

Take FHPIKEEVVEEPVDITPYLDQLDE [T7E]: the protein stability index was determined as 4.19.

As for FHPIKEKVVEEPVDITPYLDQLDE [T7K], the protein stability index was 2.91.

FHPIKETVVNEPVDITPYLDQLDE [E10N]: the protein stability index was determined as 2.59.

For the variant FHPIKETVVCEPVDITPYLDQLDE [E10C], the protein stability index worked out at 2.19.

In the case of FHPIKETVVQEPVDITPYLDQLDE [E10Q], the protein stability index came out at 2.99.

For the variant FHPIKETVVMEPVDITPYLDQLDE [E10M], the protein stability index came to 2.16.

Take FHPIKETVVGEPVDITPYLDQLDE [E10G]: the protein stability index stood at 2.8.

In the case of FHPIKETVVPEPVDITPYLDQLDE [E10P], the protein stability index was 2.98.

With FHPIKETVVYEPVDITPYLDQLDE [E10Y], the protein stability index amounted to 1.8.

With FHPIKETVVVEPVDITPYLDQLDE [E10V], the protein stability index was 2.12.

In the case of FHPIKETVVDEPVDITPYLDQLDE [E10D], the protein stability index is 3.24.

Regarding FHPIKETVVFEPVDITPYLDQLDE [E10F], the protein stability index came out at 1.54.

On to FHPIKETVVSEPVDITPYLDQLDE [E10S], for which the protein stability index amounted to 2.54.

Consider FHPIKETVVLEPVDITPYLDQLDE [E10L], for which the protein stability index stood at 2.69.

Take FHPIKETVVHEPVDITPYLDQLDE [E10H]: the protein stability index stood at 2.56.

Turning to FHPIKETVVIEPVDITPYLDQLDE [E10I], the protein stability index is 2.08.

As for FHPIKETVVREPVDITPYLDQLDE [E10R], the protein stability index was found to be 2.1.

Take FHPIKETVVTEPVDITPYLDQLDE [E10T]: the protein stability index is 2.56.

In the case of FHPIKETVVKEPVDITPYLDQLDE [E10K], the protein stability index amounted to 1.84.

For the variant FHPIKETVVAEPVDITPYLDQLDE [E10A], the protein stability index amounted to 2.39.

For FHPIKETVVEEMVDITPYLDQLDE [P12M], the protein stability index was 2.65.

With FHPIKETVVEEVVDITPYLDQLDE [P12V], the protein stability index is 3.06.

On to FHPIKETVVEEIVDITPYLDQLDE [P12I], for which the protein stability index came out at 2.93.

For the variant FHPIKETVVEELVDITPYLDQLDE [P12L], the protein stability index amounted to 3.1.

In the case of FHPIKETVVEESVDITPYLDQLDE [P12S], the protein stability index came out at 3.31.

For the variant FHPIKETVVEEGVDITPYLDQLDE [P12G], the protein stability index amounted to 3.58.

For the variant FHPIKETVVEEWVDITPYLDQLDE [P12W], the protein stability index came to 2.79.

FHPIKETVVEETVDITPYLDQLDE [P12T]: the protein stability index amounted to 3.18.

Regarding FHPIKETVVEEHVDITPYLDQLDE [P12H], the protein stability index was 3.29.

In the case of FHPIKETVVEEEVDITPYLDQLDE [P12E], the protein stability index is 3.52.

With FHPIKETVVEEDVDITPYLDQLDE [P12D], the protein stability index came to 3.52.

As for FHPIKETVVEERVDITPYLDQLDE [P12R], the protein stability index was 3.01.

As to FHPIKETVVEEKVDITPYLDQLDE [P12K], the protein stability index stood at 3.04.

FHPIKETVVEEFVDITPYLDQLDE [P12F]: the protein stability index is 3.65.

Take FHPIKETVVEEQVDITPYLDQLDE [P12Q]: the protein stability index is 3.52.

FHPIKETVVEEYVDITPYLDQLDE [P12Y]: the protein stability index was determined as 2.81.

Take FHPIKETVVEENVDITPYLDQLDE [P12N]: the protein stability index came to 3.57.

As for FHPIKETVVEECVDITPYLDQLDE [P12C], the protein stability index was 3.03.

With FHPIKETVVEEAVDITPYLDQLDE [P12A], the protein stability index worked out at 2.99.

In the case of FHPIKYTVVEEPVDITPYLDQLDE [E6Y], the protein stability index is 1.75.

For FHPIKTTVVEEPVDITPYLDQLDE [E6T], the protein stability index stood at 3.28.

In the case of FHPIKRTVVEEPVDITPYLDQLDE [E6R], the protein stability index turned out to be 1.98.

Take FHPIKVTVVEEPVDITPYLDQLDE [E6V]: the protein stability index was determined as 1.87.

As to FHPIKSTVVEEPVDITPYLDQLDE [E6S], the protein stability index is 2.52.

Regarding FHPIKWTVVEEPVDITPYLDQLDE [E6W], the protein stability index is 1.91.

On to FHPIKETVVEEPVEITPYLDQLDE [D14E], for which the protein stability index was 3.18.

For the variant FHPIKETVVEEPVPITPYLDQLDE [D14P], the protein stability index is 3.09.

For FHPIKETVVEEPVKITPYLDQLDE [D14K], the protein stability index turned out to be 3.13.

With FHPIKETVVEEPVVITPYLDQLDE [D14V], the protein stability index came to 2.73.

On to FHPIKETVVEEPVIITPYLDQLDE [D14I], for which the protein stability index was found to be 2.9.

Consider FHPIKETVVEEPVLITPYLDQLDE [D14L], for which the protein stability index is 2.91.

FHPIKETVVEEPVMITPYLDQLDE [D14M]: the protein stability index was determined as 2.14.

As to FHPIKETVVEEPVHITPYLDQLDE [D14H], the protein stability index was 3.11.

In the case of FHPIKETVVEEPVRITPYLDQLDE [D14R], the protein stability index worked out at 2.62.

Turning to FHPIKETVVEEPVCITPYLDQLDE [D14C], the protein stability index came out at 3.12.

Regarding FHPIKETVVEEPVSITPYLDQLDE [D14S], the protein stability index turned out to be 2.75.

Regarding FHPIKETVVEEPVQITPYLDQLDE [D14Q], the protein stability index is 2.91.

On to FHPIKETVVEEPVNITPYLDQLDE [D14N], for which the protein stability index amounted to 3.04.

FHPIKETVVEEPVTITPYLDQLDE [D14T]: the protein stability index is 3.18.

FHPIKETVVEEPVAITPYLDQLDE [D14A]: the protein stability index stood at 3.05.

FHPIKETVVEEPVWITPYLDQLDE [D14W]: the protein stability index worked out at 1.63.

Turning to FHPIKETVVEEPVFITPYLDQLDE [D14F], the protein stability index was determined as 1.93.

As to FHPIKETVVEEPVYITPYLDQLDE [D14Y], the protein stability index was 2.11.

Consider FHPIKETVVEEPVGITPYLDQLDE [D14G], for which the protein stability index was 2.42.

On to FHPIKETVVEEPVDIDPYLDQLDE [T16D], for which the protein stability index amounted to 3.79.

Take FHPIKETVVEEPVDIHPYLDQLDE [T16H]: the protein stability index stood at 2.79.

Regarding FHPIKETVVEEPVDIEPYLDQLDE [T16E], the protein stability index came to 3.75.

Consider FHPIKETVVEEPVDICPYLDQLDE [T16C], for which the protein stability index came out at 3.09.

As for FHPIKETVVEEPVDIAPYLDQLDE [T16A], the protein stability index amounted to 3.91.

On to FHPIKETVVEEPVDILPYLDQLDE [T16L], for which the protein stability index came out at 3.05.

With FHPIKETVVEEPVDIMPYLDQLDE [T16M], the protein stability index worked out at 3.73.

For FHPIKETVVEEPVDIFPYLDQLDE [T16F], the protein stability index was found to be 3.2.

As for FHPIKETVVEEPVDINPYLDQLDE [T16N], the protein stability index was determined as 3.18.

Regarding FHPIKETVVEEPVDIGPYLDQLDE [T16G], the protein stability index was determined as 3.44.

For FHPIKETVVEEPVDIKPYLDQLDE [T16K], the protein stability index stood at 3.45.

As for FHPIKETVVEEPVDIIPYLDQLDE [T16I], the protein stability index is 3.41.

As for FHPIKETVVEDPVDITPYLDQLDE [E11D], the protein stability index was determined as 3.15.
